The data set deals with the molecule itself. In words: SEC. For orientation: Size exclusion chromatography separates by hydrodynamic size, large species first.

B1: apoNC1 (heme-free DGCR8 construct NC1, a.a. 276-751) (domain or fragment, human, UniProt Q8WYQ5 276-751, looked up)
chain: DGETSVQPMMTKIKTVLKSRGRPPTEPLPDGWIMTFHNSGVPVYLHRESRVVTWSRPYFLGTGSIRKHDPPLSSIPCLHYKKMKDNEEREQSSDLTPSGDVSPVKPLSRSAELEFPLDEPDSMGADPGPPDEKDPLGAEAAPGALGQVKAKVEVCKDESVDLEEFRSYLEKRFDFEQVTVKKFRTWAERRQFNREMKRKQAESERPILPANQKLITLSVQDAPTKKEFVINPNGKSEVCILHEYMQRVLKVRPVYNFFECENPSEPFGASVTIDGVTYGSGTASSKKLAKNKAARATLEILIPDFVKQTSEEKPKDSEELEYFNHISIEDSRVYELTSKAGLLSPYQILHECLKRNHGMGDTSIKFEVVPGKNQKSEYVMACGKHTVRGWCKNKRVGKQLASQKILQLLHPHVKNWGSLLRMYGRESSKMVKQETSDKSVIELQQYAKKNKPNLHILSKLQEEMKRLAEEREETRK
B1: the binding result is “binds”.
